Assay [1] has as its target monomeric His-tagged human FcRn (JTA), produced in-house (human) (UniProt P55899). Description: SPR, IgG amine-coupled, monomeric His-hFcRn injected, pH 6.0; first of two values in the cell. In general terms: In SPR one partner is held on a chip, and binding of the other changes the refractive index at the surface.
Assay [2] shares this target. Kind of assay: SPR, IgG amine-coupled, monomeric His-hFcRn injected, 1:1 Langmuir, pH 6.0.
For assay [3] the target is unchanged. Description: SPR, IgG amine-coupled, monomeric His-hFcRn injected, pH 6.0; second value (steady-state affinity model by the footnote).
Assay [4] has as its target T1, recombinant human FcRn (Sino Biological Inc. Cat. No. CT009-H08H) (human, UniProt P55899 24-297; P61769 21-119).
T1 construct: Bought protein; also called immobilized FcRn; hFcRn (SINO)
Description: competition ELISA vs biotinylated parent murine antibody, captured FcRn, pH 6.0. Background: In an ELISA, binding on a coated surface is turned into a signal by an enzyme label.
Description: (§1) The following day, 1 μg/ml recombinant human FcRn (Sino Biological Inc. cat. no. CT009-H08H) diluted in PBS pH 7.4 was added to the wells and incubated for 1 hour at 37° C. After washing the plates 3× with PBST pH 7.4, the plates were blocked with PBSM pH 7.4 for 1 hour at 37° C. From this point onwards, all wash and incubation steps were performed at the chosen assay pH (pH 6.0 or 7.4).
(§2) Additional combinations of humanized affinity matured heavy chains and humanized affinity matured light chains were tested in the competition ELISA. Combinations of humanized affinity matured heavy chains and humanized non-affinity matured light chains also were tested.

Assay [5] addresses T1, recombinant human FcRn (Sino Biological …). Kind of assay: competition ELISA vs biotinylated parent murine antibody, captured FcRn, pH 7.4.
Description: as §1, §2
Assay [6] has the same target. Description: competition ELISA vs biotinylated human serum IgG, captured FcRn, pH 6.0.
Description: The following day, 0.5 μg/ml recombinant human FcRn (Sino Biological Inc. cat. no. CT009-H08H) diluted in PBS pH 7.4 was added to the wells and incubated for one hour at 37° C. After washing the plates 3× with PBST pH 7.4, the plates were blocked with PBSM pH 7.4 for one hour at 37° C. From this point onwards, all wash and incubation steps were performed at assay pH 6.0.

monomeric His-tagged human FcRn (JTA), produced in-house (human), sequence (P55899 24-297 limits assumed, chain 1 of 2): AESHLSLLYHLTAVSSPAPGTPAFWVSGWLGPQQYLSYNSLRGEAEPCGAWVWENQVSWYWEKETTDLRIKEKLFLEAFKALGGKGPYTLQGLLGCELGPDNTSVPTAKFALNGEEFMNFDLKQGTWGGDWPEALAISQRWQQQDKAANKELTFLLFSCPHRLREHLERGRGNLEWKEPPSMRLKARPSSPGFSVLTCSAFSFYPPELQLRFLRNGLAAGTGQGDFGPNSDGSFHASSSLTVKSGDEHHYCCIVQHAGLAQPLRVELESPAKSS
monomeric His-tagged human FcRn (JTA), produced in-house (human), sequence (P61769 21-119 limits assumed, chain 2 of 2, further chain): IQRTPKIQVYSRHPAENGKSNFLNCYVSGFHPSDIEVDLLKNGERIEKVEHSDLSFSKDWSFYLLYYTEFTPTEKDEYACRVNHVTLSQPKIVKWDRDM
T1 sequence (P55899 24-297 limits assumed, chain 1 of 2): as the sequence (P55899 24-297 limits assumed, chain 1 of 2) above
T1 sequence (P61769 21-119 limits assumed, chain 2 of 2): as the sequence (P61769 21-119 limits assumed, chain 2 of 2, further chain) above

Consider human IgG1 (antibody), for which the Kd (commonly the equilibrium constant for the complex coming apart) in assay [1] was determined as 0.763 µM. Further, in assay [2], the koff (as a rule, the rate constant with which the complex falls apart) is 0.0824 s⁻¹ and the kon (in general, the rate constant with which the complex forms) was determined as 108000 M⁻¹ s⁻¹. In assay [3], this molecule showed a Kd of 1.25 µM.

Consider human IgG4 (antibody), for which the Kd worked out at 1.01 µM in assay [1] and 0.97 µM in assay [3].

B1: VH1_A8/Vκ1 IgG4 (antibody, V domains shown)
VH: QVQLVQSGAELKKPGASVKLSCKASGYTFTSYGISWVKQATGQGLEWIGEIYPRSGNTYYNEKFKGRATLTADKSTSTAYMELRSLKSEDSAVYFCARSTTVSPPAHWGTGTTVTVSS
VL: DIQMTQSPSYLSASVGDRVTITCKASDHINNWLAWYQQKPGQAPRLLISGATSLETGVPSRFSGSGTGKDYTLTISSLQTEDFATYYCQQYWSTPYTFGGGTKVEIK
notes: Human IgG4, kappa
For the molecule B1, the results for the “average relative IC50” value in assay [4], in assay [5] and in assay [6] were 0.87 relative to chimeric parent murine antibody, 0.89 relative to chimeric parent murine antibody and 0.53 relative to parent murine antibody, respectively.
